{
  "source": "the Human Domainome abundance scans (Beltran et al. 2025)",
  "parents": {"B1": {"name": "Homeobox protein cut-like 2, residues 895 to 963; numbered along this chain, O14529 (parent)", "chain": "EVDTLELTRQVKEKLAKNGICQRIFGEKVLGLSQGSVSDMLSRPKPWSKLTQKGREPFIRMQLWLSDQL"}},
  "note": "± gives the uncertainty stated by the source.",
  "data": [
    {"variants_of": "B1", "experiment": "abundance fitness (aPCA) (normalised: wild type 0, dead -1); higher = more abundant; growth selection in yeast, the domain comes from the species named", "conditions": "Homo sapiens", "values": [
      {"variant": "EVDTLELTRQVKEKLAKNGICQRIFGEKVLGISQGSVSDMLSRPKPWSKLTQKGREPFIRMQLWLSDQL", "abundance fitness": "-0.063 ± 0.034"},
      {"variant": "EVDTGELTRQVKEKLAKNGICQRIFGEKVLGLSQGSVSDMLSRPKPWSKLTQKGREPFIRMQLWLSDQL", "abundance fitness": "-0.061 ± 0.03"},
      {"variant": "EVDTLELTRQVKEKLAKNGICQRIFGEKVLGLSQGSVSDMLARPKPWSKLTQKGREPFIRMQLWLSDQL", "abundance fitness": "-0.014 ± 0.11"},
      {"variant": "EVDTLELTRQVKEKLAKNGICQRIFGEKVLGLKQGSVSDMLSRPKPWSKLTQKGREPFIRMQLWLSDQL", "abundance fitness": "0.023 ± 0.067"},
      {"variant": "EVDTLELTRQVKEKLAKNGICQRIFGEKVLGLSQGSVSDMLSRPKPWSKLTQKGREPFIRSQLWLSDQL", "abundance fitness": "-0.606 ± 0.037"},
      {"variant": "EVDTLELTRQVKEKLAKNGICQRIFGEKVLGLSQGSVSDMLSRPKPWSKLTQKGREPFIRKQLWLSDQL", "abundance fitness": "-1.05 ± 0.16"},
      {"variant": "EVDTLELTRQVKEKLAKNGICQRIFGEKVLGLSQGSVSDMLSRPKPWSKFTQKGREPFIRMQLWLSDQL", "abundance fitness": "-0.315 ± 0.052"},
      {"variant": "EVDTLELTRQVKEKLAKNGICQRIFGEKVLGLSQGSVSDMLSRPKPWSKVTQKGREPFIRMQLWLSDQL", "abundance fitness": "-0.522 ± 0.045"},
      {"variant": "EVDTLELTRQVKEKLAKNGICQRIFGEKVLGLSQGSVSDMLSRPKPWSKWTQKGREPFIRMQLWLSDQL", "abundance fitness": "-0.12 ± 0.081"},
      {"variant": "EVDTLELTRQVKEKLAKNGICQRIFGEKVLGLSQGSVSDMLSRPKPWSKTTQKGREPFIRMQLWLSDQL", "abundance fitness": "-0.808 ± 0.063"},
      {"variant": "EVDTLELWRQVKEKLAKNGICQRIFGEKVLGLSQGSVSDMLSRPKPWSKLTQKGREPFIRMQLWLSDQL", "abundance fitness": "-0.206 ± 0.032"},
      {"variant": "EVDTLELRRQVKEKLAKNGICQRIFGEKVLGLSQGSVSDMLSRPKPWSKLTQKGREPFIRMQLWLSDQL", "abundance fitness": "-0.136 ± 0.029"},
      {"variant": "EVDTLELTRQVKEKAAKNGICQRIFGEKVLGLSQGSVSDMLSRPKPWSKLTQKGREPFIRMQLWLSDQL", "abundance fitness": "0.038 ± 0.14"},
      {"variant": "EVDTLELTRQVKEKIAKNGICQRIFGEKVLGLSQGSVSDMLSRPKPWSKLTQKGREPFIRMQLWLSDQL", "abundance fitness": "-0.084 ± 0.047"},
      {"variant": "EVDTLELTRQVKEKLAKNGICQRIFGEKVLGLSQGSVKDMLSRPKPWSKLTQKGREPFIRMQLWLSDQL", "abundance fitness": "0.06 ± 0.024"},
      {"variant": "EVDTLELTRQVKYKLAKNGICQRIFGEKVLGLSQGSVSDMLSRPKPWSKLTQKGREPFIRMQLWLSDQL", "abundance fitness": "-0.08 ± 0.062"},
      {"variant": "EVDTLELTRQVKHKLAKNGICQRIFGEKVLGLSQGSVSDMLSRPKPWSKLTQKGREPFIRMQLWLSDQL", "abundance fitness": "-0.155 ± 0.08"},
      {"variant": "FVDTLELTRQVKEKLAKNGICQRIFGEKVLGLSQGSVSDMLSRPKPWSKLTQKGREPFIRMQLWLSDQL", "abundance fitness": "-0.079 ± 0.17"},
      {"variant": "EVDTLELTVQVKEKLAKNGICQRIFGEKVLGLSQGSVSDMLSRPKPWSKLTQKGREPFIRMQLWLSDQL", "abundance fitness": "-0.15 ± 0.027"},
      {"variant": "EVDTLELTAQVKEKLAKNGICQRIFGEKVLGLSQGSVSDMLSRPKPWSKLTQKGREPFIRMQLWLSDQL", "abundance fitness": "-0.044 ± 0.033"},
      {"variant": "EVDTLELTRQVKEKLQKNGICQRIFGEKVLGLSQGSVSDMLSRPKPWSKLTQKGREPFIRMQLWLSDQL", "abundance fitness": "-0.063 ± 0.044"},
      {"variant": "EVDTLELTRQVKEKLAKNGICQRIFGEKVLGLSQGSVSDMLSRPKPWSKLTQKGREPFIWMQLWLSDQL", "abundance fitness": "-0.553 ± 0.095"},
      {"variant": "EVDTLELTRQVKEKLAKNGICQRIFGEKVLGLSQGSVSDMLSRPKMWSKLTQKGREPFIRMQLWLSDQL", "abundance fitness": "-0.214 ± 0.06"},
      {"variant": "EVDTLELTRQVHEKLAKNGICQRIFGEKVLGLSQGSVSDMLSRPKPWSKLTQKGREPFIRMQLWLSDQL", "abundance fitness": "-0.354 ± 0.11"},
      {"variant": "EVDTLELTRQVEEKLAKNGICQRIFGEKVLGLSQGSVSDMLSRPKPWSKLTQKGREPFIRMQLWLSDQL", "abundance fitness": "-0.348 ± 0.074"},
      {"variant": "EVDTLELTRQVKEKLAKNGICQRIFGEKVLGLSQGSVSDMLSRPKPWSKLTQKGREPFIRMQLWLHDQL", "abundance fitness": "0.005 ± 0.092"},
      {"variant": "EVDTLELTRQVKEKLAKNGICQRIFGEKVLGLSQGSVSDMLSRPKPWSKLTPKGREPFIRMQLWLSDQL", "abundance fitness": "0.01 ± 0.029"},
      {"variant": "EVDTLELTRQVKEKLAKNGICQRIFGEKVLGLSQGSESDMLSRPKPWSKLTQKGREPFIRMQLWLSDQL", "abundance fitness": "-0.436 ± 0.087"},
      {"variant": "EVDTLELTRQVKEKLAKNGICQRIFGEKVLGLSQGWVSDMLSRPKPWSKLTQKGREPFIRMQLWLSDQL", "abundance fitness": "-0.057 ± 0.064"},
      {"variant": "EVDTLELTRQVKEKLAKNGICQRYFGEKVLGLSQGSVSDMLSRPKPWSKLTQKGREPFIRMQLWLSDQL", "abundance fitness": "0.097 ± 0.059"},
      {"variant": "EVDTLELTRQVKEKLAKNGICQRCFGEKVLGLSQGSVSDMLSRPKPWSKLTQKGREPFIRMQLWLSDQL", "abundance fitness": "-0.243 ± 0.042"},
      {"variant": "EVDTLELTRQVKEKLAKNGICQRDFGEKVLGLSQGSVSDMLSRPKPWSKLTQKGREPFIRMQLWLSDQL", "abundance fitness": "-0.047 ± 0.12"},
      {"variant": "EVDTLELTRQVKEKLAKNGICQRIFGEKVLGLSQGSVSDMLSRPKPWLKLTQKGREPFIRMQLWLSDQL", "abundance fitness": "-0.191 ± 0.027"},
      {"variant": "EVDTLELTRQVKEKLAKNGICQRIFGEKVLGLSQGSVSDMLSRPKPWTKLTQKGREPFIRMQLWLSDQL", "abundance fitness": "-0.085 ± 0.042"},
      {"variant": "EVDTLELTRQRKEKLAKNGICQRIFGEKVLGLSQGSVSDMLSRPKPWSKLTQKGREPFIRMQLWLSDQL", "abundance fitness": "-0.125 ± 0.029"},
      {"variant": "EVSTLELTRQVKEKLAKNGICQRIFGEKVLGLSQGSVSDMLSRPKPWSKLTQKGREPFIRMQLWLSDQL", "abundance fitness": "-0.084 ± 0.062"},
      {"variant": "EVDTLELTRQVKEKLAKNGICQRIFGEKVLGLSPGSVSDMLSRPKPWSKLTQKGREPFIRMQLWLSDQL", "abundance fitness": "0.053 ± 0.029"},
      {"variant": "EVDTLELTRQVKEKLAKNGICQRIFGEKVLGLSIGSVSDMLSRPKPWSKLTQKGREPFIRMQLWLSDQL", "abundance fitness": "0.005 ± 0.037"},
      {"variant": "EVDTLELTRQVKEKLAKNGICQRIFGEKVLGLSHGSVSDMLSRPKPWSKLTQKGREPFIRMQLWLSDQL", "abundance fitness": "0.027 ± 0.038"}
    ]}
  ]
}
